Experimental data as given in publication PMC9785488, “EBF1 Negatively Regulates Brassinosteroid-Induced Apical Hook Development and Cell Elongation through Promoting BZR1 Degradation” (International Journal of Molecular Sciences, 2022).

Target: T1, MBP-EBF1 (Arabidopsis thaliana, UniProt Q9SKK0 1-628)
T1 construct: EBF1, Arabidopsis thaliana, AT2G25490; source: purified using amylose resin
T1 sequence (looked up): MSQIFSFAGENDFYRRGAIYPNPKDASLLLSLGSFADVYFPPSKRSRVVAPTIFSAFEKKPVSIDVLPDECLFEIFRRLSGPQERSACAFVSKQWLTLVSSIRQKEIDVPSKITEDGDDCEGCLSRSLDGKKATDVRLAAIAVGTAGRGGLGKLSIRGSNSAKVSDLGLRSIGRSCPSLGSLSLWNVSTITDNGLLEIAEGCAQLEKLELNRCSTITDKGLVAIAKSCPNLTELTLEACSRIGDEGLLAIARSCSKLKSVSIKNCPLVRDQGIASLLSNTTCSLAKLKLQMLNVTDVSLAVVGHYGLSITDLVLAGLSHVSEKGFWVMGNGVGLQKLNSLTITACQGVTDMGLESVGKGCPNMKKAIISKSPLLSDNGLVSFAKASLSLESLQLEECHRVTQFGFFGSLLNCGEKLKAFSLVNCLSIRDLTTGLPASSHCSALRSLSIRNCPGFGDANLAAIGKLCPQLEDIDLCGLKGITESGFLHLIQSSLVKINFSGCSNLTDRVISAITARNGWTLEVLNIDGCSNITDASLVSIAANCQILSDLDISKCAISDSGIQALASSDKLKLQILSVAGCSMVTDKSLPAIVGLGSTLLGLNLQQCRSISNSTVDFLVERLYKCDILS
Assay: pull-down; glutathione beads with 1 µg GST-BZR1 incubated with 1 µg MBP or MBP-EBF1; 20 mM Tris-HCl pH 7.5, 100 mM NaCl, 1 mM EDTA; washed 10 times with 300 mM NaCl, 0.5% Triton X-100; immunoblot with anti-MBP
Settings: both partners purified

binding result: binds
B1: GST-BZR1 (natural protein, Arabidopsis thaliana, UniProt Q8S307 1-336, looked up)
chain: MTSDGATSTSAAAAAAAAAAARRKPSWRERENNRRRERRRRAVAAKIYTGLRAQGDYNLPKHCDNNEVLKALCVEAGWVVEEDGTTYRKGCKPLPGEIAGTSSRVTPYSSQNQSPLSSAFQSPIPSYQVSPSSSSFPSPSRGEPNNNMSSTFFPFLRNGGIPSSLPSLRISNSCPVTPPVSSPTSKNPKPLPNWESIAKQSMAIAKQSMASFNYPFYAVSAPASPTHRHQFHTPATIPECDESDSSTVDSGHWISFQKFAQQQPFSASMVPTSPTFNLVKPAPQQMSPNTAAFQEIGQSSEFKFENSQVKPWEGERIHDVGMEDLELTLGNGKARG
notes: BZR1, Arabidopsis thaliana, At1G75080; also called glutathione S-transferase (GST) fusion protein GST-BZR1; source: bacteria, purified (glutathione beads)
